Here are results for nine molecules from patent publication US20210147536A1 (MAB VENTURE BIOPHARM, published 2021).

A value given as a limit tells only on which side of the number the result lay.

Assay [1] deals with T1, human LAG-3-6*His tag recombinant fusion protein (human, UniProt P18627 23-450, biotin-labelled in panning and in Example 9).
T1 construct: Bought protein; also called hLAG-3-6*his tag recombinant protein; human LAG-3-his tag recombinant fusion protein
T1 sequence: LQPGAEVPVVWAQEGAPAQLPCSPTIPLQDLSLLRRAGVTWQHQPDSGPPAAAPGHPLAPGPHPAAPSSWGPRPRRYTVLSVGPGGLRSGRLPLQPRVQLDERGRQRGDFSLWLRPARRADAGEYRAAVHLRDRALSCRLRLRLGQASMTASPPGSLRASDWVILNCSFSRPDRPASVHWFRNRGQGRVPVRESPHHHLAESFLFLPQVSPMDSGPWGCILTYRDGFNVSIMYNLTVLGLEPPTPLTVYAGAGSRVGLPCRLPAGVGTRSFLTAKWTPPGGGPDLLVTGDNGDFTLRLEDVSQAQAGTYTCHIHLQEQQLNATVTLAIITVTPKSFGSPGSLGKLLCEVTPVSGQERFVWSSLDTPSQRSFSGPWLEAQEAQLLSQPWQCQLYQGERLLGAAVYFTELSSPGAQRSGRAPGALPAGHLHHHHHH
Briefly: ELISA, human LAG-3-6*His coated at 1 µg/ml, IgG4 titrated, anti-hIgG HRP.

Assay [2] concerns the target T2, human LAG-3 on the cell surface (human, UniProt P18627 23-525).
T2 construct: whole, on cells; also called cells expressing the human LAG-3
T2 sequence (looked up): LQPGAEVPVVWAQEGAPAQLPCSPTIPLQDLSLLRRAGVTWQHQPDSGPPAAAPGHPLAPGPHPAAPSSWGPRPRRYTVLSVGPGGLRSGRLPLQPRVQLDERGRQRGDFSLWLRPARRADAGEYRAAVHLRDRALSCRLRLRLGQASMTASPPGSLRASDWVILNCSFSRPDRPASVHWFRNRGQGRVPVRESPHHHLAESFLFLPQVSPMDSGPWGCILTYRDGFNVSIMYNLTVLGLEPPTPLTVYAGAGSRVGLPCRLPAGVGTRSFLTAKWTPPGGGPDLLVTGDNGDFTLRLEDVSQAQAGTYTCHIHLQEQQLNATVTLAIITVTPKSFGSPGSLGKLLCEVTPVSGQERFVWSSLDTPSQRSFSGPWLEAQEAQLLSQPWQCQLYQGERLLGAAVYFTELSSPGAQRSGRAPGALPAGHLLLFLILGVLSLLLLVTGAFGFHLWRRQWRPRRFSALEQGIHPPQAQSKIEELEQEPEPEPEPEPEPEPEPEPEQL
Briefly: flow cytometry on cells expressing the human LAG-3, PE anti-human IgG; N = 1. For orientation: In flow cytometry, cells or beads pass a laser one at a time.

In assay [3] the target is T1, human LAG-3-6*His tag recombinant …. As to the kind of experiment: ELISA as in Example 4 (antibody coated, human LAG-3-6*His titrated). A general note: ELISA stands for enzyme-linked immunosorbent assay.
For assay [4], the target named is T2, human LAG-3 on the cell surface. Briefly: cell-based or functional assay.
Assay [5] has the same target. As to the kind of experiment: flow cytometry on cells expressing the human LAG-3, PE anti-human IgG; N = 4.
Assay [6] has as its target T1, human LAG-3-6*His tag recombinant …. Briefly: ELISA as in Example 4 (antibody coated, human LAG-3-6*His titrated); N = 3.
For assay [7] the target is unchanged. As to the kind of experiment: ELISA as in Example 4 (antibody coated, human LAG-3-6*His titrated); N = 2.
For assay [8], the target named is T2, human LAG-3 on the cell surface. Briefly: flow cytometry on cells expressing the human LAG-3, PE anti-human IgG; N = 2.

B1: IgG4 monoclonal antibody 11454 (antibody, V domains shown)
VH: EVQLLQSGGGLVQPGGSLRLSCAASGFTFSSYEMNWVRQAPGKGLEWVSYISSSGSTIYYADSVKGRFTISRDNAKNSLYLQMNSLRAEDTAVYYCARVGLLDAFDIWGQGTMVTVSS
VL: QSVLTQPPSVSAAPGQKVTISCSGSSSNIGNNYVSWYQLIPEKAPRLLIYDDDKRPSGIPDRFSGSQSGTSATLGITGLQTGDEADYFCGTWDNSLSGAVFGGGTQLIILG
notes: IgG4, lambda
Turning to B1, in assay [1], the EC50 (usually the concentration giving half of the maximal effect) was 85.8 µg/mL.

B2: MV705-3-VH-DD + DE-IgG4 (antibody, V domains shown)
VH: EVQLLESGAEVKKPGASVKVSCKASGYTFTSYGISWVRQAPGQGLEWMGWISAYNGNTNYAQKLQGRVTMTTDTSTSTAYMELRSLRSDDTAVYYCARDGWWELLRPDEAFDIWGQGTTVTVSS
VL: QLVLTQSPSVSVSPGQTASITCSGDKLGDKYAYWYQQKPGQAPVLVIYYDSDRPSGIPERFSGSNSGNTATLTISRVEAGDEADYYCQVWDSSSDQVVFGGGTQLTVLG
notes: human IgG4 S228P constant region, MV705-3 lambda light chain; also called 13365; 13365 (DD + DE)
B2: the EC50 was greater than 10 µg/mL in assay [2] and 1.29 µg/mL in assay [3].

B3: MV705-3-VH-DE + DD-IgG4 (antibody, V domains shown)
VH: EVQLLESGAEVKKPGASVKVSCKASGYTFTSYGISWVRQAPGQGLEWMGWISAYNGNTNYAQKLQGRVTMTTDTSTSTAYMELRSLRSDETAVYYCARDGWWELLRPDDAFDIWGQGTTVTVSS
VL: QLVLTQSPSVSVSPGQTASITCSGDKLGDKYAYWYQQKPGQAPVLVIYYDSDRPSGIPERFSGSNSGNTATLTISRVEAGDEADYYCQVWDSSSDQVVFGGGTQLTVLG
notes: human IgG4 S228P constant region, MV705-3 lambda light chain; also called 13380; 13380 (DE + DD)
In the case of B3, the “EC50, ability to activate T cells in vitro (LAG3/NFAT Reporter-Jurkat)” value (from here on “EC50, ability … (LAG3/NFAT Reporter-Jurkat)”) in assay [4] was found to be 0.05 µg/mL. Further, the EC50 came to 1.8 ng/mL in assay [5] and 0.044 µg/mL in assay [6].

B4: MV705-3-VH-ED + DE-IgG4 (antibody, V domains shown)
VH: EVQLLESGAEVKKPGASVKVSCKASGYTFTSYGISWVRQAPGQGLEWMGWISAYNGNTNYAQKLQGRVTMTTDTSTSTAYMELRSLRSEDTAVYYCARDGWWELLRPDEAFDIWGQGTTVTVSS
VL: QLVLTQSPSVSVSPGQTASITCSGDKLGDKYAYWYQQKPGQAPVLVIYYDSDRPSGIPERFSGSNSGNTATLTISRVEAGDEADYYCQVWDSSSDQVVFGGGTQLTVLG
notes: human IgG4 S228P constant region, MV705-3 lambda light chain; also called 13564; 13564 (ED + DE)
With B4, the EC50 in assay [2] was greater than 0.01 µg/mL; in assay [3] it was 2.43 µg/mL.

B5: MV705-3-VH-ED + DD-IgG4 (antibody, V domains shown)
VH: EVQLLESGAEVKKPGASVKVSCKASGYTFTSYGISWVRQAPGQGLEWMGWISAYNGNTNYAQKLQGRVTMTTDTSTSTAYMELRSLRSEDTAVYYCARDGWWELLRPDDAFDIWGQGTTVTVSS
VL: QLVLTQSPSVSVSPGQTASITCSGDKLGDKYAYWYQQKPGQAPVLVIYYDSDRPSGIPERFSGSNSGNTATLTISRVEAGDEADYYCQVWDSSSDQVVFGGGTQLTVLG
notes: human IgG4 S228P constant region, MV705-3 lambda light chain; also called 13381; 13381 (ED + DD)
Consider B5, for which the “EC50, ability … (LAG3/NFAT Reporter-Jurkat)” value in assay [4] amounted to 0.1 µg/mL. Moreover, the values for the EC50 in assay [5] and in assay [6] were 2.2 ng/mL and 0.044 µg/mL, respectively.

B6: MV705-3-VH-ED + ED-IgG4 (antibody, V domains shown)
VH: EVQLLESGAEVKKPGASVKVSCKASGYTFTSYGISWVRQAPGQGLEWMGWISAYNGNTNYAQKLQGRVTMTTDTSTSTAYMELRSLRSEDTAVYYCARDGWWELLRPEDAFDIWGQGTTVTVSS
VL: QLVLTQSPSVSVSPGQTASITCSGDKLGDKYAYWYQQKPGQAPVLVIYYDSDRPSGIPERFSGSNSGNTATLTISRVEAGDEADYYCQVWDSSSDQVVFGGGTQLTVLG
notes: human IgG4 S228P constant region, MV705-3 lambda light chain; also called 13616; 13616 (ED + ED)
Turning to B6, the values for the EC50 in assay [7] and in assay [8] were 0.21 µg/mL and 5.1 ng/mL, respectively. Further, the “EC50, ability … (LAG3/NFAT Reporter-Jurkat)” value in assay [4] is greater than 30 µg/mL.

B7: MV705-3-VH-DE + ED-IgG4 (antibody, V domains shown)
VH: EVQLLESGAEVKKPGASVKVSCKASGYTFTSYGISWVRQAPGQGLEWMGWISAYNGNTNYAQKLQGRVTMTTDTSTSTAYMELRSLRSDETAVYYCARDGWWELLRPEDAFDIWGQGTTVTVSS
VL: QLVLTQSPSVSVSPGQTASITCSGDKLGDKYAYWYQQKPGQAPVLVIYYDSDRPSGIPERFSGSNSGNTATLTISRVEAGDEADYYCQVWDSSSDQVVFGGGTQLTVLG
notes: human IgG4 S228P constant region, MV705-3 lambda light chain; also called 13563; 13563 (DE + ED)
Take B7: in assay [4], the “EC50, ability … (LAG3/NFAT Reporter-Jurkat)” value is greater than 30 µg/mL. The EC50 came to 4.7 ng/mL in assay [5] and 0.21 µg/mL in assay [3].

B8: MV705-3-VH-DD + ED-IgG4 (antibody, V domains shown)
VH: EVQLLESGAEVKKPGASVKVSCKASGYTFTSYGISWVRQAPGQGLEWMGWISAYNGNTNYAQKLQGRVTMTTDTSTSTAYMELRSLRSDDTAVYYCARDGWWELLRPEDAFDIWGQGTTVTVSS
VL: QLVLTQSPSVSVSPGQTASITCSGDKLGDKYAYWYQQKPGQAPVLVIYYDSDRPSGIPERFSGSNSGNTATLTISRVEAGDEADYYCQVWDSSSDQVVFGGGTQLTVLG
notes: human IgG4 S228P constant region, MV705-3 lambda light chain; also called 13386; 13386 (DD + ED)
As to B8, the “EC50, ability … (LAG3/NFAT Reporter-Jurkat)” value in assay [4] was greater than 30 µg/mL. The EC50 was 5.9 ng/mL in assay [5] and 0.15 µg/mL in assay [3].

B9: MV705-3-VH-DE + DE-IgG4 (antibody, V domains shown)
VH: EVQLLESGAEVKKPGASVKVSCKASGYTFTSYGISWVRQAPGQGLEWMGWISAYNGNTNYAQKLQGRVTMTTDTSTSTAYMELRSLRSDETAVYYCARDGWWELLRPDEAFDIWGQGTTVTVSS
VL: QLVLTQSPSVSVSPGQTASITCSGDKLGDKYAYWYQQKPGQAPVLVIYYDSDRPSGIPERFSGSNSGNTATLTISRVEAGDEADYYCQVWDSSSDQVVFGGGTQLTVLG
notes: human IgG4 S228P constant region, MV705-3 lambda light chain; also called 13565; 13565 (DE + DE)
As to B9, the EC50 is greater than 10 ng/mL in assay [8] and 3.13 µg/mL in assay [3].
